Values belong to the compound of their own block, whether it stands above or below them. Where no end group is shown, it is not given here. [ ]: non-standard residue; d: D form. glycan = not defined here
What was measured:
[1] = FDA-approved food additive; cited from earlier work
[2] = Solubility assessment in various solvents; type: physicochemical; details: for Solubility (in words): in DMSO and PBS, did not require sonication
Description: A small sample containing the (co-)polymer of interest (e.g., PLA or PLGA) and the ANG-(1-7) oligopeptide (total sample size: ˜1 mg) was placed into a microfuge tube. The solvent of interest (e.g., DMSO, NMP, BB, and/or BzOH) was added in μL aliquots until the drug compound was in solution. The samples were left overnight to fully dissolve and were sonicated the following day, as was necessary to fully solubilize the sample. Solubility was determined when/if a clear solution was obtained.
Solubility assessment was performed for the ANG-(1-7) oligopeptide of the disclosure across multiple different solvents shown in Table 6, below. […] All other solvents required sonication to fully dissolve the ANG-(1-7) oligopeptide. DMSO is a suitable starting solvent for gel formulation evaluation.
Solubility of PNA5 in various solvents was tested and for potential use with this peptide. […] All other solvents required sonication to fully dissolve PNA5. DMSO is a suitable starting solvent for gel formulation evaluation using the PNA5 peptide. Benzyl benzoate and benzyl alcohol may also be useful solvents or solvent additives.

Compound: CC(=O)OC[C@H]1O[C@H](OC2(COC(C)=O)O[C@H](COC(=O)C(C)C)[C@@H](OC(=O)C(C)C)[C@@H]2OC(=O)C(C)C)[C@H](OC(=O)C(C)C)[C@@H](OC(=O)C(C)C)[C@@H]1OC(=O)C(C)C (some centres unmarked) [SAIB, sucrose acetoisobutyrate]
safe human daily intake [1]: up to 20 mg/kg

Solubility (in words) [2]: very high solubility
Concentration ([2]; solvent Benzyl Alcohol): 250000 µg/mL
Concentration ([2]; solvent Benzyl Benzoate): 250000 µg/mL
Concentration ([2]; solvent DMSO): 500000 µg/mL
Concentration ([2]; solvent Ethoxylated Castor Oil): 250000 µg/mL
Concentration ([2]; solvent Ethyl Laureate): 250000 µg/mL
Concentration ([2]; solvent Ethyl Oleate): 250000 µg/mL
Concentration ([2]; solvent NMP): 250000 µg/mL
Concentration ([2]; solvent Oleic Acid): 250000 µg/mL
Concentration ([2]; solvent PBS at pH 7.4): 500000 µg/mL
Concentration ([2]; solvent Polyethylene Glycol 300): 250000 µg/mL
Concentration ([2]; solvent Triacetin): 250000 µg/mL
Concentration ([2]; solvent Triethyl Citrate): 250000 µg/mL
Compound: CC[C@H](C)[C@H](NC(=O)[C@H](Cc1ccc(O)cc1)NC(=O)[C@@H](NC(=O)[C@H](CCCNC(=N)N)NC(=O)[C@@H](N)CC(=O)O)C(C)C)C(=O)N[C@@H](Cc1c[nH]cn1)C(=O)N1CCC[C@H]1C(=O)O [ANG-(1-7), Asp-Arg-Val-Tyr-Ile-His-Pro]

Compound: PNA5: ANG-(1-7) variant, SEQ ID NO: 10: Asp Arg Val Tyr Ile His Ser* (glycosylated serine), carboxyl terminal NH2 ([dD][dR][dV][dY][dI][dH][dS](glycan)-NH2; reading uncertain; also: printed as Asp Arg Val Tyr Ile His Ser*)
Concentration ([2]; Table 9, solvent Benzyl Alcohol (BA)): 100000 µg/mL
Concentration ([2]; Table 9, solvent Benzyl Benzoate (BB)): 100000 µg/mL
Concentration ([2]; Table 9, solvent DMA): 100000 µg/mL
Concentration ([2]; Table 9, solvent DMSO): 500000 µg/mL
Concentration ([2]; Table 9, solvent Ethoxylated Castor Oil): 100000 µg/mL
Concentration ([2]; Table 9, solvent Ethyl Laurate): 100000 µg/mL
Concentration ([2]; Table 9, solvent Ethyl Oleate): 100000 µg/mL
Concentration ([2]; Table 9, solvent NMP): 100000 µg/mL
Concentration ([2]; Table 9, solvent Oleic Acid): 100000 µg/mL
Concentration ([2]; Table 9, solvent PBS): 100000 µg/mL
Concentration ([2]; Table 9, solvent Polyethylene Glycol 300): 100000 µg/mL
Concentration ([2]; Table 9, solvent Triacetin): 100000 µg/mL
Concentration ([2]; Table 9, solvent Triethyl Citrate): 100000 µg/mL
Solubility (in words) [2]: high solubility
Observation at 0-24 hours ([2]; solvent Benzyl Alcohol (BA), 100 mg/mL): Clear colorless, fluid
Observation at 0-24 hours ([2]; solvent Benzyl Benzoate (BB), 100 mg/mL): Clear colorless, fluid
Observation at 0-24 hours ([2]; solvent DMA, 100 mg/mL): Insoluble
Observation at 0-24 hours ([2]; solvent DMSO, 500 mg/mL): Clear colorless, fluid
Observation at 0-24 hours ([2]; solvent Ethoxylated Castor Oil, 100 mg/mL): Insoluble
Observation at 0-24 hours ([2]; solvent Ethyl Laurate, 100 mg/mL): Insoluble
Observation at 0-24 hours ([2]; solvent Ethyl Oleate, 100 mg/mL): Insoluble
Observation at 0-24 hours ([2]; solvent NMP, 100 mg/mL): Insoluble
Observation at 0-24 hours ([2]; solvent Oleic Acid, 100 mg/mL): Insoluble
Observation at 0-24 hours ([2]; solvent PBS, 100 mg/mL): Clear colorless, fluid
Observation at 0-24 hours ([2]; solvent Polyethylene Glycol 300, 100 mg/mL): Insoluble
Observation at 0-24 hours ([2]; solvent Triacetin, 100 mg/mL): Insoluble
Observation at 0-24 hours ([2]; solvent Triethyl Citrate, 100 mg/mL): Insoluble

Source: US20250332213A1, “EXTENDED-RELEASE INJECTABLE GEL FORMULATIONS CONTAINING ANGIOTENSIN-(1-7) OLIGOPEPTIDES OR VARIANTS THEREOF” (ProNeurogen, Inc., priority 2021, published 2025)
